Experimental data from publication PMC5685495.

Target: wild-type human dopamine transporter (human) (UniProt Q01959)
Chain of UniProt Q01959 (Q01959 whole entry): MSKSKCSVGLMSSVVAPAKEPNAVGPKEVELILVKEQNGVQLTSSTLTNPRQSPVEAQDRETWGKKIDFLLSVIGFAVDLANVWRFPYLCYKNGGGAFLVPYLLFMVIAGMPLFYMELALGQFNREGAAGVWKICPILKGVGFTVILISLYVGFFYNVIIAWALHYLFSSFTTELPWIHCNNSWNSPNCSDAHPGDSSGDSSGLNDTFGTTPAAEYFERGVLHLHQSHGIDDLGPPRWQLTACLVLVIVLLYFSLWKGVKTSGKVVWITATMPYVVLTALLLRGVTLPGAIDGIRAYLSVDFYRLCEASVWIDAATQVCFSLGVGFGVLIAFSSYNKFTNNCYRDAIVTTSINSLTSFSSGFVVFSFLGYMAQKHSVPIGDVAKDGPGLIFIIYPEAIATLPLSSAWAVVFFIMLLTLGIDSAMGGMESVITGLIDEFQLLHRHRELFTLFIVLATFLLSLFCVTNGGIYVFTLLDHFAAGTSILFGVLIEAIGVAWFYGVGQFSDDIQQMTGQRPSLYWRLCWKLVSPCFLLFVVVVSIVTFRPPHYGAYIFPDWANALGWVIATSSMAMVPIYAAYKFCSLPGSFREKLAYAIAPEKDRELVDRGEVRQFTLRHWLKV

Substance “Recombinant Tat1-86 (from UniProt P04608 1-86) (natural protein)” has a decrease in DA uptake by WT hDAT in the presence of recombinant Tat1-86 of 31%.
